The source of these data is patent US20240261333A1 (published 2024).

In the test the target is T1, EIF5B (human, UniProt O60841 1-1220).
T1 construct: also called NP_056988.3
T1 sequence (looked up): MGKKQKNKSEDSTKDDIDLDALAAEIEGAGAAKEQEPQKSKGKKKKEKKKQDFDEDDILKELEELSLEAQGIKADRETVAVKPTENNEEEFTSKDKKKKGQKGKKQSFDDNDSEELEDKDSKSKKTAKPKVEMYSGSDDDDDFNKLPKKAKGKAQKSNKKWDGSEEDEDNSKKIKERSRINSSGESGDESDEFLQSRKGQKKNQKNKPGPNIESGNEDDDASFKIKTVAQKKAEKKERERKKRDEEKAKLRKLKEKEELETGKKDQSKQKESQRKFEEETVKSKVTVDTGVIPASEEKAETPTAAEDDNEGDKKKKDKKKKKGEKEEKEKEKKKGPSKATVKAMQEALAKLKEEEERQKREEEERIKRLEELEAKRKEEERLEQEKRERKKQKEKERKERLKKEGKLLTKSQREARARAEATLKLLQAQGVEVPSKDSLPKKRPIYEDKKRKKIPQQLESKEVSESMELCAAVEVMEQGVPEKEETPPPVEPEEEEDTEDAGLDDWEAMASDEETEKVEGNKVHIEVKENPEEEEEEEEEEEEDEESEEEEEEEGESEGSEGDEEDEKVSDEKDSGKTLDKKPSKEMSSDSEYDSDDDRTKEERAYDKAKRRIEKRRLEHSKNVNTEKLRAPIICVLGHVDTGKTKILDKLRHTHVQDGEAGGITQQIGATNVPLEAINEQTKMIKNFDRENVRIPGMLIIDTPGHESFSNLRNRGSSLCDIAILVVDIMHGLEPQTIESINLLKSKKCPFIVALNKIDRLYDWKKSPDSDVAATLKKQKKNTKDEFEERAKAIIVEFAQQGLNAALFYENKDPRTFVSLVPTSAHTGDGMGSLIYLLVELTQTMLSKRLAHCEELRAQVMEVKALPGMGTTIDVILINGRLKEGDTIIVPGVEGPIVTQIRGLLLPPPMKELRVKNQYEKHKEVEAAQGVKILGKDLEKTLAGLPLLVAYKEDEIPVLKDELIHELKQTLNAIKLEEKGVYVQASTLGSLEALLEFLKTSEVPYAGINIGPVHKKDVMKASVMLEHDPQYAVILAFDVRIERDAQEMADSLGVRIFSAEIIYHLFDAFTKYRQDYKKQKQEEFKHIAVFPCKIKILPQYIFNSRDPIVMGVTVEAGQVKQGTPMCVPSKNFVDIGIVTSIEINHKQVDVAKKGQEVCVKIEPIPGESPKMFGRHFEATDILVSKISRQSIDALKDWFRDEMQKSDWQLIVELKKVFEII
Briefly: co-IP, anti-FLAG, lysate of cells with N-FLAG B3GNT2; mass spectrometry. The method, then: Cells were plated in 10-cm cell culture dishes and grown to 60-80% confluency. For each condition, two biological replicates were harvested for co-IP. Cells were washed with PBS and 4 mL of lysis buffer (20 mM HEPES, 1% Triton X-100, 150 mM NaCl, 1 mM EDTA, and 10% glycerol) containing protease inhibitor cocktail was added. Cells were scraped and lysate was incubated at 4° C. under rotary agitation for 1 h. Lysate was centrifuged at 14,000×g for 10 min at 4° C. Supernatant was transferred to a new tube and an aliquot was taken as the input. […] For Western blots, 10 μg/mL Chicken Anti-FLAG (Aves labs ET-DY100) and IgY control (R&D Systems AB-101-C) antibodies were biotinylated (Thermo Fisher Scientific 90407) and added to the respective conditions. Lysates with antibodies were incubated at 4° C. under rotary agitation overnight. For each mL of lysate, 50 μL of Pierce Protein A/G Magnetic Beads (Mass spectrometry; Thermo Fisher Scientific 88803) or Pierce Streptavidin Magnetic Beads (Western blot; Thermo Fisher Scientific 88817) was washed twice with lysis buffer. Lysates with antibodies were added to the beads and incubated at 4° C. under rotary agitation for 4 h. Beads were washed with lysis buffer 3 times and resuspended in lysis buffer for storage.
Magnetic beads were resuspended in 100 mM Tris pH 7.8, reduced, alkylated and digested with trypsin at 37° ° C. overnight. This solution was subjected to solid phase extraction to concentrate the peptides and remove unwanted reagents followed by injection onto a Shimadzu HPLC with fraction collector. Eight fractions were collected and after concentration were injected on a Waters NanoAcquity HPLC equipped with a self-packed Aeris 3 μm C18 analytical column 0.075 mm by 20 cm, (Phenomenex). Peptides were eluted using standard reverse-phase gradients. The effluent from the column was analyzed using a Thermo Orbitrap Elite mass spectrometer (nanospray configuration) operated in a data dependent manner for 54 minutes. The resulting fragmentation spectra were correlated against the known database using Proteome Discover 1.4 (Thermo Fisher Scientific).

B1: N-terminal FLAG tagged B3GNT2 (enzyme, human, UniProt Q9NY97 1-397, looked up)
chain: MSVGRRRIKLLGILMMANVFIYFIMEVSKSSSQEKNGKGEVIIPKEKFWKISTPPEAYWNREQEKLNRQYNPILSMLTNQTGEAGRLSNISHLNYCEPDLRVTSVVTGFNNLPDRFKDFLLYLRCRNYSLLIDQPDKCAKKPFLLLAIKSLTPHFARRQAIRESWGQESNAGNQTVVRVFLLGQTPPEDNHPDLSDMLKFESEKHQDILMWNYRDTFFNLSLKEVLFLRWVSTSCPDTEFVFKGDDDVFVNTHHILNYLNSLSKTKAKDLFIGDVIHNAGPHRDKKLKYYIPEVVYSGLYPPYAGGGGFLYSGHLALRLYHITDQVHLYPIDDVYTGMCLQKLGLVPEKHKGFRTFDIEEKNKNNICSYVDLMLVHSRKPQEMIDIWSQLQSAHLKC
notes: Overexpressed in cells and pulled down from the lysate with mouse anti-FLAG antibody; also called N-FLAG B3GNT2; N-term FLAG; not shown: N-terminal FLAG tag
With B1, the “co-IP mass spectrometry count” value stood at 0.
